Data: patent US20250296958A1, “GL[…] E[…]” (THE ADMINISTRATORS OF THE TULANE EDUCATIONAL FUND, priority 2022, published 2025)
Bridges are numbered along the chain shown (N, C = ends). Where no end group is shown, it is not given here. [ ]: non-standard residue; d: D form. Glc = glycosylated with D-glucose; Lact = not defined here

Tests used:
mu opioid receptor [1] = biological target: mu opioid receptor (UniProt P35372); assay: PDSP receptor binding
delta opioid receptor [2] = biological target: delta opioid receptor (UniProt P41143); assay: PDSP receptor binding; binding eliminated by the text
kappa opioid receptor [3] = biological target: kappa opioid receptor (UniProt P41145); assay: as above
mu opioid receptor [4] = biological target: mu opioid receptor (UniProt P35372); assay: PDSP receptor binding; log of Ki in M
delta opioid receptor [5] = biological target: delta opioid receptor (UniProt P41143); assay: PDSP receptor binding, selectivity against MOR; from the 10,000 nM ceiling
kappa opioid receptor [6] = biological target: kappa opioid receptor (UniProt P41145); assay: as above
mu opioid receptor [7] = biological target: mu opioid receptor (UniProt P35372); assay: PDSP receptor binding; against the glycosylated Trp analogs
[8] = biological target: kappa opioid receptor, P41145; assay: PDSP receptor binding; log of Ki in M

B1: Analog A5 (D-Nal at position 3, C-terminus Ser(Lact)CONH2) (peptide)
peptide: YK[dNal]FES(Lact)-NH2
modifications: not fully specified; reading uncertain
- Ki (mu opioid receptor [1]): 0.0553 µM
- Ki (delta opioid receptor [2]): > 10 µM
- Ki (kappa opioid receptor [3]): > 10 µM
- Log Ki (mu opioid receptor [4]): -7.26
- del/mu (ratio of Ki at DOR to Ki at MOR) (delta opioid receptor [5]): > 181
- kap/mu (ratio of Ki at KOR to Ki at MOR) (kappa opioid receptor [6]): > 181
- further fold reduction of MOR binding by D-Nal at position 3 (mu opioid receptor [7]): 11 fold

B2: Analog A4 (D-Nal at position 3, C-terminus Ser(Glc)CONH2) (peptide)
peptide: YK[dNal]FES(Glc)-NH2
modifications: not fully specified
- Ki (mu opioid receptor [1]): 0.0635 µM
- Ki (delta opioid receptor [2]): > 10 µM
- Ki (kappa opioid receptor [3]): > 10 µM
- Log Ki (mu opioid receptor [4]): -7.2
- del/mu (ratio of Ki at DOR to Ki at MOR) (delta opioid receptor [5]): > 157
- kap/mu (ratio of Ki at KOR to Ki at MOR) (kappa opioid receptor [6]): > 157
- further fold reduction of MOR binding by D-Nal at position 3 (mu opioid receptor [7]): 11 fold

B3: Analog A8: Tyr-c[D-Lys-Trp-Phe-Glu]-Ser-NH2 (peptide)
peptide: Y[dK]WFES-NH2
modifications: lactam 2-5
- Log Ki [8]: -5.98
